Results from the supplement of paper PMC10567573.

B1: ZER1 (parent)
chain: KEMARKVIEHCSNFKEENMDTSR
B2: FAM107A (parent)
chain: LQRVLEHRRRNQLIKKKKEELEAK

Variants of: B1
Assay: protein stability index of a GFP-peptide fusion (GPS, HEK-293T) (PSI 1-6); higher = more stable
Conditions: c terminus: native
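Note: lentivirally expressed fusions sorted by FACS into six bins by GFP to DsRed ratio, PSI derived from sequencing read proportions per bin multiplied by bin number.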

Protein stability index: each site, then its substitutions
R23: P 4.6; W 3.91; L 4.86; H 5.07; F 4.69; D 5.41; G 5.08; M 4.6; K 5.27; Q 5.31; Y 4.54; N 5.16; V 4.76; A 4.67; I 4.9; E 5.48; T 5.01; C 4.72; S 4.84
S22: Q 3.72; T 4.42; Y 3.76; R 2.38; N 4.12; W 2.97; V 3.7; P 4.29

Variants of: B2
Assay: as above
Conditions: c terminus: a fixed tail appended

Protein stability index: each site, then its substitutions
R8: A 3.43; I 2.42; F 2.1; T 3.87; W 1.68; G 3.39; Q 3.38; D 4.61; N 3.53; M 3.38; H 2.89; P 3.45; E 4.32; V 3.05; K 3.82; L 2.15
Q12: V 3.45; L 2.2; T 3.66; N 3.1; P 4.12; K 4; M 3.45; A 4.05; R 4.07; W 1.5; E 4.11; S 3.11; I 3.74; H 3.5; G 2.85; Y 2.8; D 3.74; F 2.66
E19: R 2.56; F 2.22; T 3.19; N 2.98; L 1.86; H 2.87; S 3.13; I 3.12; V 2.7; M 3.19; D 4.2; Y 3.23; Q 2.56; C 2.46; K 2.97; P 3.41
L13: S 3.72; C 3.3; N 3.6; Y 3.37; F 3.83; K 3.43; E 4.54; D 3.29; P 4.07; I 3.76; H 4.18; A 3.51; Q 3.73; T 3.32; V 3.08; M 3.83; G 4.31
L5: T 4.38; W 3.71; E 4.38; A 4.08; S 4.46; Q 3.94; F 3.77; H 5.17; M 4.19; G 4.73; R 4.04; Y 2.98; I 3.2; P 4.69; N 4.27; C 3.69
I14: Q 3.62; C 3.42; L 3.24; M 4.54; P 3.31; Y 3.28; E 4.18; F 4.1; N 3.74; V 4.25; S 3.92; T 3.71; R 3.66; D 4.39; H 3.44
V4: W 2.09; P 4.66; R 4.14; N 4.87; F 2.05; K 4.39; L 2.87; S 3.69; M 3.1; G 3.52; T 3.92; Q 4.61; A 4.09; E 4.49; H 3.68
K16: H 3; D 4.44; I 3.28; E 3.94; C 3.26; W 3.58; S 4; Q 3.82; T 3.85; G 4.52; N 4.07; Y 2.41; A 4.15; M 3.09; R 3.04
E6: I 2.73; H 3.81; A 3.07; D 3.61; C 3.12; F 3.63; L 2.79; V 3.68; R 3.81; Y 3; P 3.96; S 4.13; W 3.02; G 3.98; M 3.32; T 3.02; K 4.04
H7: Q 3.75; R 3.19; Y 1.69; N 3.67; A 3.67; L 3.34; C 3.37; I 3.06; K 1.82; M 3.15; E 3.9; P 3.4; G 4.29; D 4.04; F 3.1
R10: P 4.23; M 2.85; D 4.77; I 3.3; N 3.55; C 3.14; H 3.2; A 4.01; L 3.66; E 3.75; T 4.57; Y 4.04; K 3.29; G 4.15; F 3.21; S 3.95; V 3.95; W 3.94
L1: F 3.13; W 2.56; T 4.72; M 3.64; G 4.37; Q 5.11; I 2.73; Y 3.02; E 4.79; D 5.36; K 4.85; A 4.61; P 4.66
E20: A 3.12
K18: V 3.21; T 3.93; W 3.1; S 3.62; Q 3.04; L 2.81; Y 3.11; N 3.41; C 3.37; H 3.67; P 4.37; A 4.54; M 3.57; F 4.52; E 3.89; I 2.74; D 4.4
K17: V 3.25; H 3.52; A 3.44; I 2.58; Y 3.37; F 3.73; C 2.8; E 4.31; M 3.16; G 4.27; Q 3.8; T 4.38; L 3.5; W 3.74; D 4.78
R9: E 3.97; C 3.23; M 2.77; T 4.07; G 4.14; H 3.65; P 3.81; S 4.03; I 2.72; A 4.4; V 2.16; F 2.49; D 3.96; L 1.72; K 3.76; Y 1.84
N11: F 2.72; K 3.62; Y 2.97; A 2.24; P 3.24; G 3.57; L 2.65; C 2.83; T 3.38; W 1.93; Q 3.09; V 3.25; E 4.16; I 2.97; S 3.6; M 3.4; H 3.23; D 3.56
R3: W 2.27; D 4.5; I 2.09; L 2.39; H 4.12; C 3.13; N 3.79; Q 3.92; K 3.69; Y 3.39; E 5.32; T 3.8; V 3.6; F 3.04; A 3.21; S 4.04
Q2: R 3.67; P 3.98; Y 2.13; N 4.13; W 2.06; V 2.41; K 4.01; G 4.38; E 3.89; M 2.78; I 1.8; L 1.81; T 4.02; C 2.98; A 2.93; D 3.25; F 2.16
K15: I 3.24; S 3.86; Y 3.51; R 3.34; Q 3.7; A 4.16; L 3.84; N 4; P 4.18; G 4.49; E 4.74; M 3.98; H 4.23; C 3.52; T 3.87; D 3.61
